# Measurements reported in US20230212587A1, “Mutant Hydroxyphenylpyruvate Dioxygenase Polypeptide, Encoding Gene Thereof and Use Therefor” (Beijing Dabeinong Biotechnology Co., Ltd., priority 2019, published 2023).
# B1: BvHPPDm-F372G: Beta vulgaris HPPD mutant F372G, SEQ ID NO: 323 (protein)
# chain: MGTLSPQPQTSPSQFKLVGYSNFIRVNPLSDLFPVKRFHHVEFWCGDATNVSRRFSWGLGMPIVAKSDLSTGNSVHASYLLRSGELHFLFTSPYSPSLSSPSSATIPTFSFSLFTSFLTSHGLAVRAVAVEVQDAEAAFHISVSNGASPVSPPIRLHDGVVLSEVHLYGDVVLRYVSTSSVVDGIFLPGFEEMLGESSFQELDFGLRRLDHAVGNVPELAPAIEYVKKFTGFHEFAEFTTEDVGTSESGLNSAVVANNDETVLFPMNEPVYGTKRKSQIQTYLEHNEGAGVQHLALMSEDIFWTLREMRKRSGLGGFEFMPSPPPTYYRNLRNRAADVLSEEQMKECEELGILVDKDDQGTLLQIGTKPIGDRPTMFIEIIQRIGCMMKDEEGKVYQKGGCGGFGKGNFSELFKSIEEYEKTLERKPIADTNAT
# modifications: BvHPPDm-F372G Amino Acid Sequence
# B2: NtHPPDm-F372G: Nicotiana tabacum HPPD mutant F372G, SEQ ID NO: 325 (protein)
# chain: MGKLETVTTTSAAAADDSSELTTNFKLVGFKNFIRTNPRSDFFSVKSFHHIEFWCGDATNTARRFSWSLGMPIAAKSDLSTGNSVHASYLLRPVSGSLQFLFTAPYSPSISTPSSAAIPSFSTSTHRSFTTTHGLGVRAVALEVENAYTAFSASVSRGAKPMFEPVTIDEQVAMAEVHLYGDVVLRFVSYLKDADNLVFLPGFEAMDETASYKELDYGIRRLDHAVGNVPELGPVVDYIKRFTGFHEFAEFTAEDVGTAESGLNSMVLANNDETVLLPLNEPVYGTKRKSQIQTYLEHNEGAGVQHLALVTEDIFKTLTEMRKRSGVGGFEFMPSPPPTYYKNLKNRAGDVLSDEQILACEELGILVDRDDQGTLLQIGTKPVGDRPTIFIEIIQRIGCMLKDGKGQVYQKGGCGGFGKGNFSELFRSIEEYEKTLEAKQANQVAAA
# modifications: NtHPPDm-F372G Amino Acid Sequence
# B3: CsHPPDm-F372G: Cucumis sativus HPPD mutant F372G, SEQ ID NO: 327 (protein)
# chain: MGKEADFPRAPSEATDGGATASQSEFELQGFDNFIRTNPKSDRFKVKRFHHIEFWCTDATNVARRFSWGLGMQIVAKSDLSTGNMTHASYLLRSGHLCFLFTAPYSPSIAAAQNLTPASTASIPSFDHSVCRSFSGTHGFGARAIALEVEDAEIAFRTSVAHGAKPSCPPIVLENRAVLSEVHLYGDVVLRYISYKNPVSGDNGENKPDEWFLPKFEAMEETASFPLDFGIRRLDHAVGNVPELGPAVSYLKGFTGFHEFAEFTAEDVGTSESGLNSMVLANNEEMVLLPINEPVFGTKRKSQIQTYLEHNEGAGVQHLALMSEDIFRTLREMRKRSSVGGFEFMPSPPPTYYKNLKSRAGDVLTDEQIKECEELGILVDKDDQGTLLQIGTKPVGDRPTIFIEIIQRLGCMMKDEEGKAFQKGGCGGFGKGNFSELFKSIEEYEKTLEAKRVSE
# modifications: CsHPPDm-F372G Amino Acid Sequence
# B4: StHPPDm-F372G: Solanum tuberosum HPPD mutant F372G, SEQ ID NO: 329 (protein)
# chain: MGKQAATATATATATADDQQLPADIEDKYKLVGFNNFVRTNPRSDLFNVKRFHHIEFWCGDATNTARRFSWGLGLPIAAKSDLSTGNSVHASYLLRSSSSQLQFLFTAPYSPAISTPSSSSIPTFSVSSHRSFTETHGLGVRAIALEVENSRLAFSTCVSHGAKPVSEPVILNDEVVISEVHLYGDVVLRFVSFLKDSNRFVFLPGFELVEGAQLDYGIRRLDHAVGNVPQLGPVVEYIKSFTGFHEFAEFTAEDVGTAESGLNSVVLANNDETVLFPLNEPVYGTKRKSQIQTYLEHNEGAGVQHLALVTEDIFRTLREMRKRSGIGGFEFMPSPPPTYYKNLKSRAGDILSDEQIKECEELGILVDRDDQGTLLQIGTKPVGDRPTIFLEIIQRIGCMLQNAEGELYQKGGCGGFGKGNFSELFKSIEEYEKTLEAKQNTQVAIA
# modifications: StHPPDm-F372G Amino Acid Sequence
# Tested on: Arabidopsis thaliana T1 plants
# Test: Topramezone tolerance of transgenic Arabidopsis thaliana T1 plants (pesticide damage grade by bleached leaf area, score, resistance evaluation)
# Format: in vivo
# Details: topramezone 25 g ai/ha (1x); HPPD F372G mutants, Table 6
# Summary of the method: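 Eighteen days after sowing, wild-type and HPPD-transgenic T1 Arabidopsis receive a topramezone spray at 1×, 2× or 4× field rate (25–100 g ai/ha) or water. Seven days later each plant is graded by its proportion of bleached leaf area.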
row,Molecule,Resistance evaluation
1,B1,Moderately resistant
2,B2,Poorly resistant
3,B3,Poorly resistant
4,B4,Poorly resistant

# Same assay, conditions: topramezone 100 g ai/ha (4x); HPPD F372G mutants, Table 6
row,Molecule,Resistance evaluation
1,B1,Non-resistant
2,B2,Non-resistant
3,B3,Non-resistant
4,B4,Non-resistant
